Literature values, collected in article PMC3222890.
Read-outs that look alike come from different tables or passages of the source.

Tests used:
[1] = biological target: GDI (Saccharomyces cerevisiae) (UniProt P39958)
[2] = biological target: GDI (Saccharomyces cerevisiae) (UniProt P39958); remark: listed apart in the source
[3] = biological target: GDI (Saccharomyces cerevisiae) (UniProt P39958); remark: listed apart in the source

Chain of UniProt P39958 (P39958 whole entry): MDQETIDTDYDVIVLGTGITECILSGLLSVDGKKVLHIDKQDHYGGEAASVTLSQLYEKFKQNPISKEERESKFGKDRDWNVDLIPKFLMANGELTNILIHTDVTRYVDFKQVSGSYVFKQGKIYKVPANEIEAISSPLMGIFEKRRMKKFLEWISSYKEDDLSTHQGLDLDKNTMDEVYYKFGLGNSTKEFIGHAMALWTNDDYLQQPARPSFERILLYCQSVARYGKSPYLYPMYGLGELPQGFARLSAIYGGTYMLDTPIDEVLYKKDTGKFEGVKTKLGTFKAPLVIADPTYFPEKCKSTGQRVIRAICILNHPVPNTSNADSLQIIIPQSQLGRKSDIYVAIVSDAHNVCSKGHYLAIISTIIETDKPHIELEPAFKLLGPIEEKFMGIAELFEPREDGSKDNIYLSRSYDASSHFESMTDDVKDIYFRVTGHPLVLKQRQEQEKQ

Substance: Ypt31 (from UniProt P38555)
- Kd [1]: 18900 nM

Substance: Ypt32 (from UniProt P51996)
- Kd [2]: 1500 nM

Substance: Sec4 (from UniProt P07560)
- Kd [3]: 330 nM
